For experiment [1], the system named is primary mouse keratinocytes. As to the kind of experiment: BrDu proliferation assay of mouse keratinocytes. Conditions: increasing concentrations of sAgrin. It is filed as cell-based. As for the experimental part:
(a) The protein sequence of the C-terminal Agrin fragment used as bio-additive. Gel-filtration profile of purified sAgrin. The recombinant sAgrin were tested in a Coomassie stained gel and by Western blot using an Agrin antibody. (b) BrDu proliferation assay of mouse keratinocytes cells treated with increasing concentrations of sAgrin for the indicated days (n=3 experiments, Students ‘t’ test, **p=0.001 and *p=0.01, respectively). (c) HaCaT/mouse keratinocytes cells treated with increasing doses of sAgrin were subjected to scratch wound assay. Representative bright-field images are shown at indicated times post-wounding. Scale bar: 20 μm. The resulting uncovered wound area presented as mean+/−s.d. was quantified using ImageJ (n=3, Students ‘t’ test, *p<0.01). (d) Untreated or sAgrin (10 μg/ml) HaCaT cells were scratched and allowed to migrate for 4 h. […] The relative diameter of wounds presented as mean+/−s.d. was measured on indicated days and represented graphically from one experiment (n=3 mice per group, One-way ANOVA, *p<0.04, **p<0.004, respectively). […] The degree of proliferating cells were quantified using ImageJ (n=3 sections analyzed from two independent mice wounds, Students ‘t’ tests, *p=0.01). […] The quantification of individual types of collagen fibers were done using ImageJ (n=3 sections analyzed per group, Students ‘t’ test, *p=0.01 and 0.05, respectively).

Another experiment deals with mouse skin wounds. The experiment can be described thus: Cytokine and chemokine expression in mouse skin wounds. It counts as in vivo. As for the experimental part: The photographs of a representative wound for each condition is shown above. The respective p values for the selected group of significant genes are represent in tabular form (n=3 mice per group, Multiple t tests). (b) Western blot analysis in the mouse skin treated as in (a) showing the protein expression of selected proteins. GAPDH served as a loading control (n=2 independent mice wounds were analyzed for each group).
Indicated cells post-manipulation were washed twice with cold Phosphate buffered saline (PBS) and lysed with cold 1% NP-40 lysis buffer supplemented with 1× protease inhibitor cocktail (Roche Applied Biosciences) for 15 mins at 4° C. […] The density of the various bands was quantified using the Image-J software.
Total RNA was extracted from indicated cells using Qiagen RNeasy mini kit as per the manufacturer's recommended protocol. […] For RNA-sequencing, the RNA quality was analyzed on a Bioanalyzer instrument (Agilent) using the Agilent RNA 6000 Pico Kit. […] Purified libraries were quantified by qPCR (KAPA Library Quantification Kit for Illumina, Roche). […] The condition of sequencing was represented by a single read high output run at 75 bp read length. Raw reads from fastq files were aligned to the hg38 genome using STAR 2.6.1d. […] The relative number of reads mapping to each gene was quantified with htseqcount on features from the gtf file gencode.v29.annotation.gtf. […]

B1: sAgrin: C-terminus recombinant Agrin fragment containing 8 amino acid 'Z8' insert and LG3 domain (SEQ ID NO: 7), His-tagged, expressed in E. coli (protein)
chain: DTLAFDGRTFVEYLNAVTESELANEIPVEKALQSNHFELSLRTEATQGLVLWSGKATERADYVALAIVDGHLQLSYNLGSQPVVLRSTVPVNTNRWLRVVAHREQREGSLQVGNEAPVTGSSPLGATQLDTDGALWLGGLPELPVGPALPKAYGTGFVGCLRDVVVGRHPLHLLEDAVTKPELRPCPTP
modifications: His tag
Consider B1, for which the “proliferation (BrDu incorporation)” value in experiment [1] is recorded as “supported the proliferation of primary mouse keratinocytes”. Besides, the “protein expression of TGF-β1, VEGF-A and MCP-1” value in the experiment with mouse skin wounds (vs BSA and Collagen) was “augmented protein expression(s) of TGF-β1, VEGF-A and MCP-1”. Besides, the “mRNA of TGF-β1, VEGF-A, MCP-1, MIP-1β and MIP-2” value with mouse skin wounds (within 48 h post-injury, vs BSA or Collagen) was “significantly induced”.

For the origin of these results see patent US20230257435A1, “Wound Healing Composition and Uses Thereof” (AGENCY FOR SCIENCE, TECHNOLOGY AND RESEARCH, priority 2020, published 2023).
